Experimental data as given in publication PMC10711565.
Like-named read-outs stand apart in the source and are kept apart here.

Key:
Assay in all cases: fluorescence anisotropy
PCBP2 [1] = target: T1, PCBP2 (UniProt Q15366 1-365)
PCBP2 [2] = target: T1, PCBP2; remark: listed apart in the source
PCBP2 [3] = target: T1, PCBP2; remark: listed apart in the source

T1 sequence (Q15366 whole entry): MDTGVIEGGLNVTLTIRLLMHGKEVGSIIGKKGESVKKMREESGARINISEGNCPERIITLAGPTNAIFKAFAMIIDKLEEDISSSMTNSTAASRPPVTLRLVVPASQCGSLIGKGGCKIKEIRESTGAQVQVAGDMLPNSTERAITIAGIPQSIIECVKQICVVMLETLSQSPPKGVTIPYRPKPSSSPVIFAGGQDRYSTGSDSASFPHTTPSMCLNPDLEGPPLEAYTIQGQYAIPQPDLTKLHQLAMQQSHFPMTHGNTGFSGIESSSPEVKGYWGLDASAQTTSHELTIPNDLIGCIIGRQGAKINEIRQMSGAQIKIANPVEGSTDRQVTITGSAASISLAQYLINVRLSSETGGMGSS

GCCAGCCCCCUGAUGGGGGCGACACUCCACCAUGAAUCACUCCCC (structured_RNA) [HCV45]
Kd (PCBP2 [1]): 0.667 ± 0.034 µM

B1: HCV45:miR-122 complex (structured_RNA)
RNA 1: GCCAGCCCCCUGAUGGGGGCGACACUCCACCAUGAAUCACUCCCC
RNA 2: UGGAGUGUGACAAUGGUGUUUG
Kd (PCBP2 [2]): 9.88 ± 1.6 µM

GCCAGCCCCCUGAUGGGGGCGACACUCCACCAUGAAUCACUCCCCUG (structured_RNA) [HCV47]
binding result (PCBP2 [3]): binds

UGGAGUGUGACAAUGGUGUUUG (ssRNA) [miR-122]
Kd (PCBP2 [1]): 5.33 ± 0.47 µM
